Test results from PMC11681983 (Biochemistry Research International, 2024).

Key:
Settings in all cases: both partners purified
IL-17A [1] = target: T1, IL-17A (human, UniProt Q16552); test: SPR; Biacore, n = 3
T1 construct: IL-17A

IL-17A [2] = target: T1, IL-17A; test: ELISA; ELISA-based assay of blocking the interaction of IL-17A with IL-17RA, in duplicate, n = 3
IL-17A [3] = target: T1, IL-17A; test: ELISA; direct binding ELISA to IL-17A or VEGF, measured in duplicate, n = 2; who was coated is not told
VEGF = target: T2, VEGF (UniProt P15692 1-395); test: as above
T2 construct: vascular endothelial growth factor (VEGF); Probably VEGF165 (surmised); also called vascular endothelial growth factor
T2 sequence (P15692 whole entry): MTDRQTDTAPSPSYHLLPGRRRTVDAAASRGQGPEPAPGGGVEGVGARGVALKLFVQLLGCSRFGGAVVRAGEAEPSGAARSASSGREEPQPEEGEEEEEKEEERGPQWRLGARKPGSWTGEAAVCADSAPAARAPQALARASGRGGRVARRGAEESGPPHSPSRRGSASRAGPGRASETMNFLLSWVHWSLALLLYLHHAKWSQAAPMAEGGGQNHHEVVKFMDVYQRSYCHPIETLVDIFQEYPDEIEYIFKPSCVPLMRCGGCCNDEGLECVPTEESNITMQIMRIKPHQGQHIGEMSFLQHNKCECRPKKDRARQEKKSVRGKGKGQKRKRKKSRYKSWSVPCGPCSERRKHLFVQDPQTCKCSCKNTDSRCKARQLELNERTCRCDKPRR

T1 sequence (Q16552 24-155): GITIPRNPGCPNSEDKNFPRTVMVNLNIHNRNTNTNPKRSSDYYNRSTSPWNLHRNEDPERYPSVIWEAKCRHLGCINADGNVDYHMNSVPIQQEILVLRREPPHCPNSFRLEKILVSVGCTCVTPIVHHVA

| Kd (IL-17A [1]) [nM] | IC50 (IL-17A [2]) [nM] | EC50 (IL-17A [3]) [nM] | EC50 (VEGF) [nM] | Binder |
| --- | --- | --- | --- | --- |
| 0.0184 | 2.77 | 0.05 |  | bispecific fusion protein 17V05 (bispecific antibody, V domains shown, heavy chain of the clinical stage anti-IL-17A mAb 608 (Sunshine Guojian Pharmaceutical); linker, printed as (G4S) x 3; light chain of the anti-IL-17A mAb 608; Variant of 17V01 with M464A in D2; Two copies of D2, one at the C-terminus of each heavy chain of 608; also called bispecific anti-IL17/VEGF fusion trap; source: 293HEK cells, one-step purification with protein A chromatography (told of the …)) VH: EVQLVESGGGLVQPGGSLRLSCAASGFTFSSFDMSWGRQAPGKRLEWVAFMSSGGSTYYPDSVKGRFTISRDNSKNTLYLQMNSLRAEDTAVYYCARGERYGSYWGQGTLVTVSS VL: DIQMTQSPSSLSASVGDRVTITCKASDHINNWLAWYQQKPGKAPKLLISGATSLETGVPSRFSGSGSGTDYTLTISSLQPEDFATYYCQQYWSTPFTFGSGTKLEIK |
|  |  |  | 0.39 | D2-Fc, a fusion protein with D2 fused to the N-terminus of an Fc (Fc fusion, Limits are not printed. VEGFR1 D2 is taken as S129-D231, the aflibercept / Flt1 D2 convention. The Fc carrier is omitted; two copies assume an Fc dimer. The printed clip site M464/Y465 (fusion …)) SDTGRPFVEMYSEIPEIIHMTEGRELVIPCRVTSPNITVTLKKFPLDTLIPDGKRIIWDSRKGFIISNATYKEIGLLTCEATVNGHLYKTNYLTHRQTNTIID |
